In patent publication US20240075139A1:

These molecules were tested against EBOV Mayinga (GenBank: NC_002549) (Zaire Ebolavirus (EBOV Mayinga)) (UniProt Q05320) (assay: cell-based or functional assay).
Chain of UniProt Q05320 (Q05320 33-676 limits assumed): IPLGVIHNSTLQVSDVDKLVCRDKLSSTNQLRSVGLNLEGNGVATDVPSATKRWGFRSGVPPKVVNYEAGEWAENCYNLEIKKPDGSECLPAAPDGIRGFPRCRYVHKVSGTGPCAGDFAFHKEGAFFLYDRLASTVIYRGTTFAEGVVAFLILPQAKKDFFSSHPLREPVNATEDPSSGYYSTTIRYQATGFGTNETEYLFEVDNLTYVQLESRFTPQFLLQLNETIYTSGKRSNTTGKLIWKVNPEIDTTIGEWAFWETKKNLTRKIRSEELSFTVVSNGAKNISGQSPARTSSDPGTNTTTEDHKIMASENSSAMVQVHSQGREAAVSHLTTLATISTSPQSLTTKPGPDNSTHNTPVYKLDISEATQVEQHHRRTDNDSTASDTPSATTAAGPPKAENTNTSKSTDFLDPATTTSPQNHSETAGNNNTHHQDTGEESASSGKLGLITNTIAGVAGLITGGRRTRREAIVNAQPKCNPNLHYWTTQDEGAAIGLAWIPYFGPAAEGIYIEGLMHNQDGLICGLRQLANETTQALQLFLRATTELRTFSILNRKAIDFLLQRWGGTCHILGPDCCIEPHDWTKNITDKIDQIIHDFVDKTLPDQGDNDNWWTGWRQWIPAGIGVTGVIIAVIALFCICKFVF

Molecule | neutralization concentration (GMC, CPE reduction on Vero C1008 cells)
1T0473 (antibody, V domains shown) VH: QVQLVQSGAEVKKPGASVKVSCKASGYTFPSYEINWVRQATGQGLEWMGWMDPKSGKTGYAQKFQGRVTMTRNPSISTAYLELSSLRSEDSAVYYCARGNQWFGELLSSYYGLDVWGQGTTVTVSS VL: EIVLTQSPGTLSLSPGEGATLSCRASQSVSSSFLTWYHQKPGQAPRLLIYGASNRATGVPDRFSGGGSGTDFTLTISRLEPEDFGVYYCQQYGSSLITFGPGTKVDIK | 2.63 µg/mL
1T0139 (antibody, V domains shown) VH: QVQLQESGPGLVKPSETLSLTCIVSGGSLSSYYWSWVRQPAGKGLQWIGHIYTTGSTNYNPSLKSRVTMSIDTSKNQFSLRLSSVTAADTAVYYCARESYRYNAYDIHPFDYWGQGTLVTVSS VL: SYELTQSSSVSVSPGQTASITCSGDKLGDNYVCWYQQKPGQSPTLVIYQDNRRPSGIPERFSGSNSGNTATLTIRGTQALDEADYYCQAWASNTVVFGGGTKLTVL | 7.44 µg/mL
5T0180 (antibody, V domains shown) VH: EVQLVESGGGLVKPGGSLRLSCAASGFSFGNAWMNWVRQAPGKGLEWVGRIKSKSDGGTTDYAAPVKDRFIISRDDSKKTLYLQMNSLRREDTAVYYCVRGPFYCDTCGPNDYWGQGTLVTVSS VL: QSVLTQPPSVSGAPGQRVTISCTGSSSNIGAGYDVQWYQQLPGTAPKVLIYGNNNRPSGVPDRFSGSKSGSSASLAITGLQAEDEADYYCQTYDSRLRDQWVFGGGTKLTVL | 12.5 µg/mL
1T0655 (antibody, V domains shown) VH: QVQLVQSGAEVKKPGASVKVSCKASGYTFTSYYMHWVRQVPGQGLEWMGIIKAGNGGTNYAQNFQGRITVTRDTSTSTVYMELSSLRSEDTAVYYCARDRQWLPLNGYSYFNYGMDVWGQGTTVTVSS VL: DIQMTQSPSSLSASVGDKITITCRASQSISTYLNWYQQRPGRAPKLLIFGASSLQSGVPSRFSGSGSGTVFTLSISSLQPDDFGSFYCQQSFSSPRTFGQGTKVEIK | 0.08 µg/mL
5T0376 (antibody, V domains shown) VH: QVQLQESGPGLVKPSETLSLTCSVSGASISTLYWSWIRQPPGKGLEWIGYMHSSGTTNYNPSLESRVTMSIDTSRNQFSLKLTSVTAADTAVYYCARGLLGPGDSWGQGTLVTVSS VL: QSALTQPASVSGSPGQSITISCTGTSSDVGGYNYVSWYQQYPGKAPKLMIYEVTSRPSGVSNRFSGSKSGNTASLTISGLQAEDEGDYYCSSYKTGSTPVVFGGGTKLTVL | 12.5 µg/mL
4T0429 (antibody, V domains shown) VH: QVQLQQWGAGLLKPSETLSLTCAVYRGSFITYYWSWVRQPPGRGLEWIGEIYKDGSASYNPSLKNRVTISLDMSKNHFSLNLDSVTAADTAVYYCARHGHTGMDVWGQGTTVTVSS VL: QSVLTQPPSTSGTPGQRVTISCSGSSSNIGLNYVYWYQQLPGTAPKLLIYRNNQRPSGVPDRFSGSKSGTSASLAISGLRSEDEADYYCAAWDDSLSAYIFGTGTKVTVL | 35 µg/mL
4T0306 (antibody, V domains shown) VH: QVQLQQSGPGLVRPSQTLSLICAISGDSVSDNNAAWNWIRQSPSRGLEWLGRTYFRSRWYNDYPESLKGRVIINPDTAENQVSLQLSSVTPGDTAVYYCVREYYDLWNGFYPGGAMDVWGQGTTVTVSS VL: DIQLTQSPSSLSASVGDRVTITCRASQDISDFLNWFQQKPGKAPKLLIYDVSKLARGVPSRFSGSASGTDFTFTISSLQPEDIATYYCQQYDDLPRTFGQGTKLEIK | 100 µg/mL
4T0570 (antibody, V domains shown) VH: QVQLVQSGAEVKKPGASIKVSCKASGYTFVSKYIHWVRQAPGQGLEWMGIINPSGGRTDYAQKFQGRVTISRDTSTSTVYMELSSLRSEDTAFYYCARALPFRVTGARDVFDIWGQGTMVTVSS VL: DIQMTQSPSSLSASVGDRVTITCRASQGISTNLAWFQQRPGKAPKSLVYAASTLQNGVPSKFSGSGSGTDFTLTISSLQPEDFATYYCQQYYTYPLTFGGGTKVEIK | 0.09 µg/mL
4m0368 (antibody, V domains shown) VH: QVQLQESGPGLVKPSGTLSLTCAVSGGSISGTNWWTWVRQPPGRGLEWIGEIYYRGSPNYNPSLKSRVTISVDQSKSQFSLKLTSVTAADTAVYYCLRLSHYGGAWGQGTLVTVSS VL: DIQLTQSPSSLSASVGDRVTITCRASQSISTYLNWYQQKPGKAPKFLIFSASNLQSGVPSRFSGGGSGTDFTLTISSLQPEDFATYYCQQTYNTPRTFGQGTKVEIK | 0.13 µg/mL
3T0265 (antibody, V domains shown) VH: EVQLVESGGNLAKPGGSLRLSCAASGFTFSDAWMTWVRQAPGKGLEWVGRIKSNADGGATEYAAPVRGRFTISRDDSRSSLFLQMNSLKTEDTAVYYCLTPPPRRYWGQGILVTVSS VL: QSVLTQPPSVSGAPGQRVAISCTGSYSNIGAGYDVHWYQQFPGAAPKLLIYAYTNRPAGVPDRFSGSKSGSSASLVISGLQADDEADYYCQSYDARLRDGEVFGGGTKLTV | 0.44 µg/mL
4T0578 (antibody, V domains shown) VH: EVQLVESGGALVQPGGSLRLSCAASGFTFSRYDIHWVRQASGKGLEWVSAIGKAGDAYYAGSVRGRFTISRENAKNSLYLQMNSLRAGDTAVYYCARASFGDLYFDLWGRGTLVTVSS VL: DIVMTQSPDSLAVSLGERATINCKSSQSLLHSSNNKNSVAWYQQKPGQPPKLLIYWASTREFGVPDRFSGSGSGTDFALTISSLQAEDVAVYVCQQYYNSPLTFGPGTKVDIK | 0.45 µg/mL
3T0123 (antibody, V domains shown) VH: QVQLVQSGSEVKKPGASVKVSCQASGYRFANYGISWVRQAPGQGLEWMGWISPLKRDPDYAQNFQGRVTMSRDTSTNTAYMELRGLTSGDTAVYFCARGLGDSYSNAWFVYVFDYWGQGSPVTVSS VL: EIVMTQSPATLSVSPGERVTLSCRTSQRIHTNLAWYQQKSGQAPRLVMYDAFTRAPGVPARFSGGGSETEFTLTISSLQSEDFALYYCQQYSQRPTFGLGTKLEIK | 0.52 µg/mL

Biological target: EBOV Mayinga (GenBank: NC_002549) (Zaire Ebolavirus (EBOV Mayinga)) (UniProt Q05320)
Experiment: cell-based or functional assay
Remark: another data set of the same source

Molecule | neutralization concentration (GMC, CPE reduction on Vero C1008 cells)
mAb114 (antibody) | 0.744 µg/mL
